# Results from US20230372484A1 (VOR BIOPHARMA, published 2023).
# Biological target: CD33 (UniProt P20138 18-364, limits assumed)
# Assay: cell-based or functional assay
# CD33, sequence (P20138 18-364 limits assumed): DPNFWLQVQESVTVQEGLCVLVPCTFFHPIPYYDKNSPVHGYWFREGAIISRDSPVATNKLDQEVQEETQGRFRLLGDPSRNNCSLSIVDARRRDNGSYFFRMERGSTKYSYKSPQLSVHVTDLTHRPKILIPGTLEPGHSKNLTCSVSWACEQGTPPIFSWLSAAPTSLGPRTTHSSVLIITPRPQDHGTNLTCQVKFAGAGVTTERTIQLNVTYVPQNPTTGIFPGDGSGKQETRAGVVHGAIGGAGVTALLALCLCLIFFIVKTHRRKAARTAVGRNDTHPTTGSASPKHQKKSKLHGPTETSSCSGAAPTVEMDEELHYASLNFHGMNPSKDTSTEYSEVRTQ
Ratio (NFAT-inducible reporter with wild-type MOLM-13 relative to MOLM-13 CD33KO) [ratio],Testing FP2 Expression (CD33+),Binder
3.6,22.9 % of constitutive-fluorescence-positive cells,CD33-CAR6 (other) QVQLVETGGGLVRAGGSLRLSCAASGRTADIYNIGWFRQAPGKEREFVAAITWIGRTPYYADAVKGRFAFSTDSAKNTVSLQMDNLKPEDTGVYYCNAAHYLEGNTDYYWGQGTQVTVSSAAATTTPAPRPPTPAPTIASQPLSLRPEACRPAAGGAVHTRGLDFACDIYIWAPLAGTCGVLLLSLVITLYCKRGRKKLLYIFKQPFMRPVQTTQEEDGCSCRFPEEEEGGCELRVKFSRSADAPAYQQGQNQLYNELNLGRREEYDVLDKRRGRDPEMGGKPRRKNPQEGLYNELQKDKMAEAYSEIGMKGERRRGKGHDGLYQGLSTATKDTYDALHMQALPPR
1.98,17.6 % of constitutive-fluorescence-positive cells,CD33-CAR7 (other) MELGLSWVVLAALLQGVQAQVQLVQPGGSLRLFCVASEEFFSIYAMGWYRQAPGKQHEMVARFTRDGKITYADSAKGRFTITRDAKNTLNLQMNGLIPEDTAVYYCNINHYWGQGTQVTVSSAAATTTPAPRPPTPAPTIASQPLSLRPEACRPAAGGAVHTRGLDFACDIYIWAPLAGTCGVLLLSLVITLYCKRGRKKLLYIFKQPFMRPVQTTQEEDGCSCRFPEEEEGGCELRVKFSRSADAPAYQQGQNQLYNELNLGRREEYDVLDKRRGRDPEMGGKPRRKNPQEGLYNELQKDKMAEAYSEIGMKGERRRGKGHDGLYQGLSTATKDTYDALHMQALPPR
1.44,3.9 % of constitutive-fluorescence-positive cells,CD33-CAR3 (other) QVQLVQSGAEVKKPGSSVKVSCKASGYTFTDYNMHWVRQAPGQGLEWIGYIYPYNGGTGYNQKFKSKATITADESTNTAYMELSSLRSEDTAVYYCARGRPAMDYWGQGTLVTVSSGGGGSGGGGSGGGGSDIQMTQSPSSLSASVGDRVTITCRASESVDNYGISFMNWFQQKPGKAPKLLIYAASNQGSGVPSRFSGSGSGTDFTLTISSLQPDDFATYYCQQSKEVPWTFGQGTKVEIKSGAAAIEVMYPPPYLDNEKSNGTIIHVKGKHLCPSPLFPGPSKPFWVLVVVGGVLACYSLLVTVAFIIFWVRSKRSRLLHSDYMNMTPRRPGPTRKHYQPYAPPRDFAAYRSRVKFSRSADAPAYQQGQNQLYNELNLGRREEYDVLDKRRGRDPEMGGKPRRKNPQEGLYNELQKDKMAEAYSEIGMKGERRRGKGHDGLYQGLSTATKDTYDALHMQALPPRGS
2.41,4.14 % of constitutive-fluorescence-positive cells,CD33-CAR4 (other) EVQLVQSGAEVKKPGSSVKVSCKASGYTITDSNIHWVRQAPGQSLEWIGYIYPYNGGTDYNQKFKNRATLTVDNPTNTAYMELSSLRSEDTAFYYCVNGNPWLAYWGQGTLVTVSSGGGGSGGGGSGGGGSDIQLTQSPSTLSASVGDRVTITCRASESLDNYGIRFLTWFQQKPGKAPKLLMYAASNQGSGVPSRFSGSGSGTEFTLTISSLQPDDFATYYCQQTKEVPWSFGQGTKVEVKRTSSGAAAIEVMYPPPYLDNEKSNGTIIHVKGKHLCPSPLFPGPSKPFWVLVVVGGVLACYSLLVTVAFIIFWVRSKRSRLLHSDYMNMTPRRPGPTRKHYQPYAPPRDFAAYRSRVKFSRSADAPAYQQGQNQLYNELNLGRREEYDVLDKRRGRDPEMGGKPRRKNPQEGLYNELQKDKMAEAYSEIGMKGERRRGKGHDGLYQGLSTATKDTYDALHMQALPPRGS
8.5,28.2 % of constitutive-fluorescence-positive cells,CD33-CAR5 (other) QVKLEESGGGSVQAGESLRLSCTASGITFRDYDIDWYRQAPGKEREWLATITPSGTTHYPDSVKGRATISRDSAKNTVYLQMNSLKPEDTARYECNTLAYWGSGTQVTVSSAAATTTPAPRPPTPAPTIASQPLSLRPEACRPAAGGAVHTRGLDFACDIYIWAPLAGTCGVLLLSLVITLYCKRGRKKLLYIFKQPFMRPVQTTQEEDGCSCRFPEEEEGGCELRVKFSRSADAPAYQQGQNQLYNELNLGRREEYDVLDKRRGRDPEMGGKPRRKNPQEGLYNELQKDKMAEAYSEIGMKGERRRGKGHDGLYQGLSTATKDTYDALHMQALPPR
